# US20060263331A1, “Therapeutic use of tumor necrosis factor-alpha mutein” (priority 2002, published 2006)
# B1: rhTNFm1: Recombinant human TNF-α mutant 1 expressed in E. coli; SEQ ID NO: 3 with N-terminal methionine (FIG. 1, 2) (protein)
# chain: MRKRKPVAHVVANPQAEGQLQWLNRRANALLANGVELRDNQLVVPSEGLYLIYSQVLFKGQGCPSTHVLLTHTISRIAVSYQTKVNLLSAIKSPCQRETPEGAEAKPWYEPIYLGGVFQLEKGDRLSAEINRPDYLDFAESGQVYFGIIAQ
# modifications: rhTNFm1 with Met
# Assays:
# Type in all cases: in vivo, human
# [1] = tested on: Liver Cancer; experiment: Clinical monotherapy of rhTNFm1, liver cancer; conditions: 12 patients
# From the text: (§1) Patients were selected based on the following criteria: i) measurable, objective tumor; ii) Karnofsky performance status (KPS)≧60; iii) age 18-75; iv) major organs in basically normal condition; v) no chemotherapy, radiotherapy and biologic therapy within the last month; vi) predicted ≧3 mon. survival; and vii) with patient's informed consent signed.
# (§2) Patients were excluded based on the following criteria: i) with history of allergic reactions to TNF or its derivatives; ii) pregnant or lactating women; iii) major organs with obvious damages or malfunction; iv) in ≧38° C. fever; v) with obvious tendency to haemorrhage; vi) with history of hypo- or hypertension; vii) with serious albuminemia; and viii) with strong tendency of disobedience or resistance.
# (§3) Patients were removed from the evaluation if any of the following conditions apply: i) treatment was not completed according to the protocol; ii) incomplete records; and iii) treatment using cancer therapies not in the protocol. However, patients who withdrew due to adverse reactions to the therapy were still included in the evaluation.
# (§4) The results of the treatment of tumors were evaluated based the following criteria: i) complete response (CR)—complete disappearance of observable pathological changes for at least 4 weeks; ii) partial response (PR)—reduction by ≧50% in tumor size measured by the product of the maximum circular and vertical dimensions for at least 4 weeks; iii) minimum response (MR)—reduction by >25% but <50% in tumor size measured by the product of the maximum circular and vertical dimensions for at least 4 weeks; iv) stabilized (SD)—reduction by ≦25% but without increase by >25% in tumor size measured by the product of the maximum circular and vertical dimensions for at least 4 weeks; and progression (PD): increase by >25% in tumor size in one or more sites.
# (§5) Patients rested on day 1 and 2. The treatment cycle was 3-4 weeks.
# [2] = tested on: malignant ascites; experiment: Clinical monotherapy of rhTNFm1, malignant ascites; conditions: 28 patients, monotherapy i.p.
# From the text: as §1, §2, §3
# The results of the treatment of malignant pleural effusion (or hydrothorax) and ascites were evaluated based on a modified Millar standard (Millar J W, Hunfer A M, Home N W. (1980) “Inerapleural immunotherapy with CP”, in Recurrent Malignant Pleural Effusions. Thorax 35:856): i) complete response (CR)—complete disappearance of pleural effusion or ascites for at least 1 month; ii) partial response (PR)—reduction by at least 1 grade for at least 1 month; iii) minimum response (MR)—reduction in the levels of pleural effusion or ascites within the same grade for at least 1 month; iv) stabilized (SD)—levels of pleural effusion or ascites maintained within the same grade for at least 1 month; and progressed (PD): increase in the levels of pleural effusion or ascites compared with those before the treatment.
# It is noted that Table III includes the patients who withdrew due to […], including 1 with malignant pleural effusion and 1 with malignant ascites. For patients with malignant ascites, rhTNFm1 was reconstituted in 30-50 ml normal saline and administered intraperitoneally (i.p.) at 2,000,000-3,000,000 units each time, 1-2 times a week, with 2-3 weeks as one treatment cycle. Optionally, rhTNFm1 was administered to the patients by alternating between i.p. injection and i.v. injection (at 600,000-900,000 unit/m^2 per day continuing for 28 days as one treatment cycle). On the day when rhTNFm1 was administered via i.p. injection, administration of rhTNFm1 via i.v. injection was stopped.
# [3] = tested on: Hodgkin's disease; experiment: Clinical monotherapy of rhTNFm1, Hodgkin's disease; conditions: for Efficacy CR / Efficacy MR / Efficacy PD / Efficacy PR / Efficacy SD: patient count
# From the text: as §1, §2, §3, §4, §5
# Table II summaries results of the treatment of patients with malignant lymphoma, classified according to Hodgkin's disease and non-Hodgkin's lymphoma. Within each of category of lymphoma, patients were further classified into two groups: chemo-naïve and chemo-refractory. The chemo-naïve patients were patients who had never been treated with any anti-cancer agent previously whereas chemo-refractory patients were ones who failed treatment with one or more anti-cancer agent.
# [4] = tested on: Colon Cancer; experiment: Clinical monotherapy of rhTNFm1, colon cancer; conditions: 7 patients
# From the text: as §1, §2, §3, §4, §5
# [5] = tested on: Lung Cancer; experiment: Clinical monotherapy of rhTNFm1, lung cancer
# From the text: as §1, §2, §3, §4, §5
# [6] = tested on: malignant tumors; experiment: Clinical monotherapy of rhTNFm1, all malignant tumors (Total); conditions: Total of tumor indications, 141 patients
# From the text: as §1, §2, §3, §4, §5
# [7] = Chemo-naïve Grade I & II, 0 patients
# [8] = Chemo-naïve Grade III & IV, 0 patients
# [9] = Lung Cancer, 20 patients, monotherapy
# [10] = patient count, Lung Cancer, 20 patients, monotherapy
molecule,measurement,setting,value
B1,Response Rate (%) CR,[1],0.00%
same,Response Rate (%) CR + PR,[1],0.00%
same,Response Rate (%) PR,[1],0.00%
same,Efficacy CR,[1]; patient count,0
same,Efficacy MR,[1]; patient count,0
same,Efficacy PD,[1]; patient count,2
same,Efficacy PR,[1]; patient count,0
same,Efficacy SD,[1]; patient count,10
same,Response Rate (%) CR,[2],3.57%
same,Response Rate (%) CR + PR,[2],42.86%
same,Response Rate (%) PR,[2],39.29%
same,Efficacy CR,[2]; patient count,1
same,Efficacy MR,[2]; patient count,3
same,Efficacy PD,[2]; patient count,1
same,Efficacy PR,[2]; patient count,11
same,Efficacy SD,[2]; patient count,12
same,Response Rate (%) CR,[3]; [7],0%
same,Response Rate (%) CR + PR,[3]; [7],0%
same,Response Rate (%) PR,[3]; [7],0%
same,Response Rate (%) CR,[3]; [8],0%
same,Response Rate (%) CR + PR,[3]; [8],0%
same,Response Rate (%) PR,[3]; [8],0%
same,Response Rate (%) CR,"[3]; Chemo-naïve Total, 0 patients",0%
same,Response Rate (%) CR + PR,"[3]; Chemo-naïve Total, 0 patients",0%
same,Response Rate (%) PR,"[3]; Chemo-naïve Total, 0 patients",0%
same,Response Rate (%) CR,"[3]; Chemo-refractory, 6 patients",0%
same,Response Rate (%) CR + PR,"[3]; Chemo-refractory, 6 patients",0%
same,Response Rate (%) PR,"[3]; Chemo-refractory, 6 patients",0%
same,Efficacy CR,[3]; [7],0
same,Efficacy MR,[3]; [7],0
same,Efficacy PD,[3]; [7],0
same,Efficacy PR,[3]; [7],0
same,Efficacy SD,[3]; [7],0
same,Efficacy CR,[3]; [8],0
same,Efficacy MR,[3]; [8],0
same,Efficacy PD,[3]; [8],0
same,Efficacy PR,[3]; [8],0
same,Efficacy SD,[3]; [8],0
same,Efficacy CR,"[3]; Chemo-naïve Total, 0 patients",0
same,Efficacy MR,"[3]; Chemo-naïve Total, 0 patients",0
same,Efficacy PD,"[3]; Chemo-naïve Total, 0 patients",0
same,Efficacy PR,"[3]; Chemo-naïve Total, 0 patients",0
same,Efficacy SD,"[3]; Chemo-naïve Total, 0 patients",0
same,Efficacy CR,"[3]; Chemo-refractory, 6 patients",0
same,Efficacy MR,"[3]; Chemo-refractory, 6 patients",0
same,Efficacy PD,"[3]; Chemo-refractory, 6 patients",1
same,Efficacy PR,"[3]; Chemo-refractory, 6 patients",0
same,Efficacy SD,"[3]; Chemo-refractory, 6 patients",5
same,Response Rate (%) CR,[4],0.00%
same,Response Rate (%) CR + PR,[4],0.00%
same,Response Rate (%) PR,[4],0.00%
same,Efficacy CR,[4]; patient count,0
same,Efficacy MR,[4]; patient count,0
same,Efficacy PD,[4]; patient count,4
same,Efficacy PR,[4]; patient count,0
same,Efficacy SD,[4]; patient count,3
same,Response Rate (%) CR,[5]; [9],0.00%
same,Response Rate (%) CR + PR,[5]; [9],5.00%
same,Response Rate (%) PR,[5]; [9],5.00%
same,"pleural fluid, reexamination about 1 month later",[5]; one lung cancer patient,little pleural fluid remained
same,"tumor diameter, reexamination about 1 month later, CT scanning",[5]; one lung cancer patient,3.5 cm
same,"tumor diameter after the treatment, CT scanning","[5]; one lung cancer patient, before 5 cm",2.5 cm
same,quality of life score after the treatment,"[5]; one lung cancer patient, before 40",53
same,KPS after the treatment,"[5]; one lung cancer patient, before 70",90
same,pleural fluid after the treatment,"[5]; one lung cancer patient, before a large amount of pleural fluid",small amount of pleural fluid remained
same,Efficacy CR,[5]; [10],0
same,Efficacy MR,[5]; [10],2
same,Efficacy PD,[5]; [10],4
same,Efficacy PR,[5]; [10],1
same,Efficacy SD,[5]; [10],13
same,Response Rate (%) CR,[6],1.42%
same,Response Rate (%) CR + PR,[6],16.31%
same,Response Rate (%) PR,[6],14.89%
same,Efficacy CR,[6]; patient count,2
same,Efficacy MR,[6]; patient count,14
same,Efficacy PD,[6]; patient count,29
same,Efficacy PR,[6]; patient count,21
same,Efficacy SD,[6]; patient count,75
